Source: the Human Domainome abundance scans (Beltran et al. 2025)
± gives the uncertainty stated by the source.

B1: DnaJ homolog subfamily C member 2, residues 451 to 503; numbered along this chain, Q99543 (parent)
chain: SKNWSEDDLQLLIKAVNLFPAGTNSRWEVIANYMNIHSSSGVKRTAKDVIGKA

Variants of: B1
Assay: abundance fitness (aPCA) (normalised: wild type 0, dead -1); higher = more abundant; growth selection in yeast, the domain comes from the species named
Conditions: Homo sapiens
Work on SKNWSEDDLQLLIKAVNLFPAGTNSRWEVIANYMNIHSSSGVKRTAVDVIGKA [K47V] yielded an abundance fitness of -0.095 ± 0.072.
For SKNWSEEDLQLLIKAVNLFPAGTNSRWEVIANYMNIHSSSGVKRTAKDVIGKA [D7E], the abundance fitness was 0.086 ± 0.068.
SKNWSETDLQLLIKAVNLFPAGTNSRWEVIANYMNIHSSSGVKRTAKDVIGKA [D7T] gave an abundance fitness of -0.005 ± 0.064.
In the case of SKNWSEQDLQLLIKAVNLFPAGTNSRWEVIANYMNIHSSSGVKRTAKDVIGKA [D7Q], the abundance fitness is reported as 0.063 ± 0.07.
Variant SKNWSEHDLQLLIKAVNLFPAGTNSRWEVIANYMNIHSSSGVKRTAKDVIGKA [D7H] has an abundance fitness of -0.257 ± 0.096.
With SKNWSEDDLQLLIKAVNLFPAGTNSRWEVIANYMNIHSWSGVKRTAKDVIGKA [S39W] the abundance fitness was -0.183 ± 0.067.
Work on SKNWSEDDLQLLIKAVNLFPAGTNSRWEVIANYMNIHSFSGVKRTAKDVIGKA [S39F] yielded an abundance fitness of -0.362 ± 0.071.
With SKNWSEDDLQLLIKAVNLFPAGTNSRWEVIANYMNIHSSSGVKRTAKDVEGKA [I50E] the abundance fitness was 0.095 ± 0.095.
Work on SKNWSEDDLQLLIKAVNLFPAGTNSRWEVIANYMNIHSSSGVKRTAKDVTGKA [I50T] yielded an abundance fitness of -0.267 ± 0.089.
Work on SKNWSEDDLQLLIKAVNLFPAGTNSRWEVIANYMNIHSSSLVKRTAKDVIGKA [G41L] yielded an abundance fitness of -0.186 ± 0.06.
With SKNWSEDDLQLLIKAVNLFPAGTNSRWEVIAEYMNIHSSSGVKRTAKDVIGKA [N32E] the abundance fitness was 0.061 ± 0.07.
With SKNWSEDDLQLLIKAVNLFPAGTNSRWEVIAWYMNIHSSSGVKRTAKDVIGKA [N32W] the abundance fitness was -0.38 ± 0.071.
STNWSEDDLQLLIKAVNLFPAGTNSRWEVIANYMNIHSSSGVKRTAKDVIGKA [K2T] gave an abundance fitness of -0.017 ± 0.081.
In the case of SWNWSEDDLQLLIKAVNLFPAGTNSRWEVIANYMNIHSSSGVKRTAKDVIGKA [K2W], the abundance fitness is reported as -0.334 ± 0.076.
Work on SANWSEDDLQLLIKAVNLFPAGTNSRWEVIANYMNIHSSSGVKRTAKDVIGKA [K2A] yielded an abundance fitness of -0.259 ± 0.084.
For SGNWSEDDLQLLIKAVNLFPAGTNSRWEVIANYMNIHSSSGVKRTAKDVIGKA [K2G], the abundance fitness was -0.159 ± 0.064.
SKNWSEDDLQLLIKAVNLFPAGTNSRWEVIANYMNIHSSSGVKRTAKDVIGKG [A53G] showed an abundance fitness of -0.112 ± 0.21.
Variant SKNWSEDDLQLLIKAVNLFPAGTNSRWEVIANYINIHSSSGVKRTAKDVIGKA [M34I] has an abundance fitness of -0.011 ± 0.075.
For SKNWSEDDLQLLIKAVNLFPAGTNSRWEVIANYANIHSSSGVKRTAKDVIGKA [M34A], the abundance fitness was -0.895 ± 0.071.
For SKNWSEDDLQLLIKAVNLFPAGTNSRWEVIANYVNIHSSSGVKRTAKDVIGKA [M34V], the abundance fitness was 0.003 ± 0.055.
For SKNWSEDDLQLLIKAVNLFPAGTNSRWEVIANYWNIHSSSGVKRTAKDVIGKA [M34W], the abundance fitness was -0.666 ± 0.066.
SKNWSEDDLQLLIKAVNLFPAGTNSRWEVIANYMHIHSSSGVKRTAKDVIGKA [N35H] gave an abundance fitness of -0.519 ± 0.12.
SKNWSEDDLQLLIKAVNLFPAGTNSRWEVIANYMDIHSSSGVKRTAKDVIGKA [N35D] gave an abundance fitness of -0.685 ± 0.096.
SKNWSLDDLQLLIKAVNLFPAGTNSRWEVIANYMNIHSSSGVKRTAKDVIGKA [E6L] gave an abundance fitness of -0.404 ± 0.17.
Variant SKNFSEDDLQLLIKAVNLFPAGTNSRWEVIANYMNIHSSSGVKRTAKDVIGKA [W4F] has an abundance fitness of -0.104 ± 0.16.
Variant SKNMSEDDLQLLIKAVNLFPAGTNSRWEVIANYMNIHSSSGVKRTAKDVIGKA [W4M] has an abundance fitness of -0.06 ± 0.079.
Variant SKNSSEDDLQLLIKAVNLFPAGTNSRWEVIANYMNIHSSSGVKRTAKDVIGKA [W4S] has an abundance fitness of -0.599 ± 0.065.
Variant SKNWSEDDLQLLIKAVNLFPAGTNSRWEVIANYMNIHGSSGVKRTAKDVIGKA [S38G] has an abundance fitness of -0.069 ± 0.058.
Variant SKNWSEDDLQLLIKAVNLFPAGTNSRWEVIANYMNIHISSGVKRTAKDVIGKA [S38I] has an abundance fitness of -1.04 ± 0.16.
For SKNWSEDDLQLLIKAVNLFPAGTNSRWEDIANYMNIHSSSGVKRTAKDVIGKA [V29D], the abundance fitness was 0.16 ± 0.092.
SKNWSEDDLQLLIKAVGLFPAGTNSRWEVIANYMNIHSSSGVKRTAKDVIGKA [N17G] showed an abundance fitness of -0.082 ± 0.057.
With SKNWSEDDLQLLIKAVILFPAGTNSRWEVIANYMNIHSSSGVKRTAKDVIGKA [N17I] the abundance fitness was -0.384 ± 0.095.
For SKNWSEDDLQLLIKAVHLFPAGTNSRWEVIANYMNIHSSSGVKRTAKDVIGKA [N17H], the abundance fitness was -0.158 ± 0.12.
In the case of SKNWSEDDLQLMIKAVNLFPAGTNSRWEVIANYMNIHSSSGVKRTAKDVIGKA [L12M], the abundance fitness is reported as -0.223 ± 0.084.
SKNWSEDDLQLGIKAVNLFPAGTNSRWEVIANYMNIHSSSGVKRTAKDVIGKA [L12G] showed an abundance fitness of -0.779 ± 0.057.
With SKNWSEDDLQLVIKAVNLFPAGTNSRWEVIANYMNIHSSSGVKRTAKDVIGKA [L12V] the abundance fitness was -0.511 ± 0.059.
SKNWSEDDLQLPIKAVNLFPAGTNSRWEVIANYMNIHSSSGVKRTAKDVIGKA [L12P] showed an abundance fitness of -0.719 ± 0.085.
Variant SKNWSEDDLQLLIKAVNLFRAGTNSRWEVIANYMNIHSSSGVKRTAKDVIGKA [P20R] has an abundance fitness of -0.392 ± 0.053.
SKNWSEDDLQLLIKAVNLFPAGTNSRWEVIANYMNIHSSSGVKRTAKVVIGKA [D48V] showed an abundance fitness of -0.759 ± 0.074.
In the case of SKNWSEDDLQLLIKAVNLFPWGTNSRWEVIANYMNIHSSSGVKRTAKDVIGKA [A21W], the abundance fitness is reported as -0.244 ± 0.064.
SKNWSEDDLQLLIKAVNLFPRGTNSRWEVIANYMNIHSSSGVKRTAKDVIGKA [A21R] showed an abundance fitness of -0.054 ± 0.055.
For SKNWSEDDLQLLIKAVNLFPAGTNSRWEVIANYMNIHSSSGVCRTAKDVIGKA [K43C], the abundance fitness was -0.06 ± 0.1.
With SKNWSEDDLQLLIKAVNLFPAGTNSRWEVIANYMNIHSSSGVNRTAKDVIGKA [K43N] the abundance fitness was -0.025 ± 0.12.
Work on SKNWSEDDLQLLIKAVNDFPAGTNSRWEVIANYMNIHSSSGVKRTAKDVIGKA [L18D] yielded an abundance fitness of -0.332 ± 0.12.
SKNWSEDDLQLLIKAVNRFPAGTNSRWEVIANYMNIHSSSGVKRTAKDVIGKA [L18R] showed an abundance fitness of -0.145 ± 0.061.
With SKNWSEDDLQLLIKAVNPFPAGTNSRWEVIANYMNIHSSSGVKRTAKDVIGKA [L18P] the abundance fitness was -0.807 ± 0.14.
For SKNWSEDDLQLLIKAVNQFPAGTNSRWEVIANYMNIHSSSGVKRTAKDVIGKA [L18Q], the abundance fitness was -0.38 ± 0.11.
SKNWSEDDLQLLIKAVNWFPAGTNSRWEVIANYMNIHSSSGVKRTAKDVIGKA [L18W] showed an abundance fitness of -0.547 ± 0.071.
For SKNWSEDDLQLLIKAVNLFPAGTNFRWEVIANYMNIHSSSGVKRTAKDVIGKA [S25F], the abundance fitness was -0.272 ± 0.081.
